Legend:
[1] = molecular target: recombinant UBE3A protein (Homo sapiens (Human)) (UniProt Q05086); experiment: Simoa head-to-head, Table 11; capture MS 2F6; UBE3A 500 ng/ml
[2] = molecular target: recombinant UBE3A protein (Homo sapiens (Human)) (UniProt Q05086); experiment: Simoa; capture GTX; SBG 75 pm; UBE3A 20.0 ng/ml
[3] = molecular target: recombinant UBE3A protein (Homo sapiens (Human)) (UniProt Q05086); experiment: Simoa; capture GTX + helper beads; 3E5 0.1 ug/ml; UBE3A 20.0 ng/ml
[4] = molecular target: recombinant UBE3A protein (Homo sapiens (Human)) (UniProt Q05086); experiment: Simoa; capture GTX; SBG 75 pm; UBE3A 0.0320 ng/ml
[5] = molecular target: recombinant UBE3A protein (Homo sapiens (Human)) (UniProt Q05086); experiment: Simoa; capture GTX, no helper beads; 3E5 0.1 ug/ml; UBE3A 4.00 ng/ml
[6] = molecular target: recombinant UBE3A protein (Homo sapiens (Human)) (UniProt Q05086); experiment: Simoa head-to-head, Table 10; capture MS 2F6; UBE3A 0.16 ng/ml
[7] = molecular target: recombinant UBE3A protein (Homo sapiens (Human)) (UniProt Q05086); experiment: Simoa; capture GTX + helper beads; 3E5 0.2 ug/ml; UBE3A 0.00640 ng/ml
[8] = molecular target: recombinant UBE3A protein (Homo sapiens (Human)) (UniProt Q05086); experiment: Simoa; capture GTX + helper beads; 3E5 0.4 ug/ml; UBE3A 0.00640 ng/ml
[9] = molecular target: recombinant UBE3A protein (Homo sapiens (Human)) (UniProt Q05086); experiment: Simoa head-to-head, Table 10; capture MS 2F6; UBE3A 0.032 ng/ml
[10] = molecular target: recombinant UBE3A protein (Homo sapiens (Human)) (UniProt Q05086); experiment: Simoa; capture GTX; 3E5 0.8 ug/ml; UBE3A 0.0320 ng/ml
[11] = molecular target: recombinant UBE3A protein (Homo sapiens (Human)) (UniProt Q05086); experiment: Simoa; capture GTX; SBG 150 pm; UBE3A 20.0 ng/ml
[12] = molecular target: recombinant UBE3A protein (Homo sapiens (Human)) (UniProt Q05086); experiment: Simoa; capture GTX; SBG 75 pm; UBE3A 4.00 ng/ml
[13] = molecular target: recombinant UBE3A protein (Homo sapiens (Human)) (UniProt Q05086); experiment: Simoa; capture GTX; 3E5 0.2 ug/ml; UBE3A 4.00 ng/ml
[14] = molecular target: recombinant UBE3A protein (Homo sapiens (Human)) (UniProt Q05086); experiment: Simoa; capture GTX + helper beads; 3E5 0.4 ug/ml; UBE3A 4.00 ng/ml
[15] = molecular target: recombinant UBE3A protein (Homo sapiens (Human)) (UniProt Q05086); experiment: 3-step Simoa, 120 min bead step; capture GTX; UBE3A 0.0320 ng/ml
[16] = molecular target: recombinant UBE3A protein (Homo sapiens (Human)) (UniProt Q05086); experiment: Simoa; capture GTX, no helper beads; 3E5 0.2 ug/ml; UBE3A 4.00 ng/ml
[17] = molecular target: recombinant UBE3A protein (Homo sapiens (Human)) (UniProt Q05086); experiment: Simoa; capture GTX, no helper beads; 3E5 0.1 ug/ml; UBE3A 20.0 ng/ml
[18] = molecular target: recombinant UBE3A protein (Homo sapiens (Human)) (UniProt Q05086); experiment: Simoa head-to-head, Table 11; capture MS 2F6; UBE3A 100 ng/ml
[19] = molecular target: recombinant UBE3A protein (Homo sapiens (Human)) (UniProt Q05086); experiment: Simoa; capture GTX; 3E5 0.2 ug/ml; UBE3A 0.00128 ng/ml
[20] = molecular target: recombinant UBE3A protein (Homo sapiens (Human)) (UniProt Q05086); experiment: 2-step Simoa; capture GTX; UBE3A 31.3 ng/ml

Chain of UniProt Q05086 (Q05086 whole entry): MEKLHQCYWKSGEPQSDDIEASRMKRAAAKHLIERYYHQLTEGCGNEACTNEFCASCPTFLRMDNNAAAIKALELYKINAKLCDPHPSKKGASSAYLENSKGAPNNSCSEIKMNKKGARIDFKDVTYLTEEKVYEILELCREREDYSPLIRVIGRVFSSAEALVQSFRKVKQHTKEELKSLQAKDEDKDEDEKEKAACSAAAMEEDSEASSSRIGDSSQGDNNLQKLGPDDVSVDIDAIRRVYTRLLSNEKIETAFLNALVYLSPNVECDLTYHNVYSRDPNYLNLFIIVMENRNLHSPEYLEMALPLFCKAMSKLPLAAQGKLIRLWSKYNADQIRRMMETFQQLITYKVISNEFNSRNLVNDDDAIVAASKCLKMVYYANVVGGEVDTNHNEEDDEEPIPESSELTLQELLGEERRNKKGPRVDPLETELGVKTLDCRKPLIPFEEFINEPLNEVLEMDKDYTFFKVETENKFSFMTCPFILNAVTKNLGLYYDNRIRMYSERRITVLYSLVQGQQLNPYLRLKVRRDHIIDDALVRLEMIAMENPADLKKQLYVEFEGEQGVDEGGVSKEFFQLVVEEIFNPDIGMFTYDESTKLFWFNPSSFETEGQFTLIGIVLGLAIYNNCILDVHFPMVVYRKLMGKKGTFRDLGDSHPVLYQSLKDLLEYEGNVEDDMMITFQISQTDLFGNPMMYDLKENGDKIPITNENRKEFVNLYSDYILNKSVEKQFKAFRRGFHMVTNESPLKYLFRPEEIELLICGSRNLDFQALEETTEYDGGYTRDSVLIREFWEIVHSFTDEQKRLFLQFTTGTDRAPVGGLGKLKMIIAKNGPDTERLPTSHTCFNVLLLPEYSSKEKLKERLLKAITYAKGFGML

## anti-UBE3A antibody 3E5 (SAB1404508-100 ug, Millipore-Sigma)
[1]
  AEB1: 8.9
  AEB2: 8.6
  Ave AEB: 8.75
  Signal to Background: 2310
[2]
  AEB1: 2.44
  AEB2: 2.81
  AEB3: 2.75
  Average AEB: 2.67
  Signal to Background: 611
[3]
  AEB1: 3.37
  AEB2: 3.48
  Average AEB: 3.42
  Signal to Background: 597
[4]
  AEB1: 0.0091
  AEB2: 0.0117
  AEB3: 0.0116
  Average AEB: 0.0108
  Signal to Background: 2.47
[5]
  AEB1: 0.607
  AEB2: 0.603
  Average AEB: 0.605
  Signal to Background: 106
[6]
  AEB1: 0.0183
  AEB2: 0.0155
  Ave AEB: 0.0169
  Signal to Background: 1.25
[7]
  AEB1: 0.0133
  AEB2: 0.0127
  Average AEB: 0.013
  Signal to Background: 1.34
[8]
  AEB1: 0.0326
  AEB2: 0.0263
  Average AEB: 0.0294
  Signal to Background: 1.51
[9]
  AEB1: 0.0162
  AEB2: 0.0146
  Ave AEB: 0.0154
  Signal to Background: 1.14
[10]
  AEB1: 0.144
  AEB2: 0.138
  AEB3: 0.152
  Average AEB: 0.145
  Signal to Background: 1.18
[11]
  AEB1: 5.87
  AEB2: 5.57
  AEB3: 5.72
  Average AEB: 5.72
  Signal to Background: 431
[12]
  AEB1: 0.459
  AEB2: 0.46
  AEB3: 0.458
  Average AEB: 0.459
  Signal to Background: 105
[13]
  AEB1: 1.18
  AEB2: 2.32
  AEB3: 1.18
  Average AEB: 1.56
  Signal to Background: 39.7
[14]
  AEB1: 1.16
  AEB2: 1.12
  Average AEB: 1.14
  Signal to Background: 58.5
[15]
  AEB1: 0.0115
  AEB2: 0.0095
  Ave AEB: 0.0105
  Signal to Background: 6.15
[16]
  AEB1: 0.878
  AEB2: 0.851
  Average AEB: 0.864
  Signal to Background: 89.4
[17]
  AEB1: 3.57
  AEB2: 3.21
  Average AEB: 3.39
  Signal to Background: 592
[18]
  AEB1: 1.79
  AEB2: 1.84
  Ave AEB: 1.81
  Signal to Background: 479
[19]
  AEB1: 0.0457
  AEB2: 0.0439
  AEB3: 0.0421
  Average AEB: 0.0439
  Signal to Background: 1.12

## NB500-240 (Novus) (antibody)
[20]
  AEB1: 0.141
  AEB2: 0.126
  Ave AEB: 0.134
  Signal to Background: 40.8

From US12467929
